Source: patent US20250011448A1 (STAIDSON BIOPHARMA, published 2025)

T1: cynomolgus monkey TNFR2 extracellular domain with C-terminal 10×His tag (cynomolgus monkey, UniProt P20333 23-257 (human entry))
T1 construct: also called cynoTNFR2-His; His-tag-cynoTNFR2
T1 chain: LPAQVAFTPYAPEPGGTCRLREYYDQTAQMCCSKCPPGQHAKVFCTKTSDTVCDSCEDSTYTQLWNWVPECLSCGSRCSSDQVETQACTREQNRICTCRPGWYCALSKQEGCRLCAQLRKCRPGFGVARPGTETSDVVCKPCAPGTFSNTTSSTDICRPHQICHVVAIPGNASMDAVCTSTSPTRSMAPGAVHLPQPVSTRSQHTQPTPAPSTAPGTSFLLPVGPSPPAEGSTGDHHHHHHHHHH

T2: cynomolgus monkey TNFR2 extracellular domain as used in the blocking ELISA (cynomolgus monkey, UniProt P20333 23-257 (human entry))
T2 construct: also called cynoTNFR2
T2 chain: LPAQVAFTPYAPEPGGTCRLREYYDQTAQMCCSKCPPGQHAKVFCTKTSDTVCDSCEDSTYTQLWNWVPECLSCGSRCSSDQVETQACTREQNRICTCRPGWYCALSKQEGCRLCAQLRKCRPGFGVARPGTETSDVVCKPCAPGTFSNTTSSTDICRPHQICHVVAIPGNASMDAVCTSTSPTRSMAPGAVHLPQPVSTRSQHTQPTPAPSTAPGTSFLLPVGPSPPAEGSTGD

T3: human TNFR2 expressed on cells (Expi293 cells stably expressing huTNFR2) (human, UniProt P20333 23-461)
T3 construct: whole, on cells; Also used here as the target of the Treg assay (native TNFR2 on human primary Treg cells); also called huTNFR2 expressed cells; Expi293-TNFR2 cells
T3 sequence (looked up): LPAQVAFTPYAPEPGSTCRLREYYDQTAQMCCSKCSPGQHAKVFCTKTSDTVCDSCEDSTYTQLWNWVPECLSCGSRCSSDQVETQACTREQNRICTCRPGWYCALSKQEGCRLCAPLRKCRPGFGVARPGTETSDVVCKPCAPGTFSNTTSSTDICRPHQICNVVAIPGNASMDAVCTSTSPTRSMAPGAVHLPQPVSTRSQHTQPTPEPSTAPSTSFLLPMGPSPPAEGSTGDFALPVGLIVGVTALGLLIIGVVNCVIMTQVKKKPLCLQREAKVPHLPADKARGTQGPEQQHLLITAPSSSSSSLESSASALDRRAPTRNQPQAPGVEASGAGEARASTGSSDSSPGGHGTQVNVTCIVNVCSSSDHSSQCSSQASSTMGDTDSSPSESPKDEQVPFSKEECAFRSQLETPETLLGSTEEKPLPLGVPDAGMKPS

T4: human TNFR2 extracellular domain with C-terminal 10×His tag (human, UniProt P20333 23-257)
T4 construct: also called huTNFR2-His; His-tag-huTNFR2
T4 sequence: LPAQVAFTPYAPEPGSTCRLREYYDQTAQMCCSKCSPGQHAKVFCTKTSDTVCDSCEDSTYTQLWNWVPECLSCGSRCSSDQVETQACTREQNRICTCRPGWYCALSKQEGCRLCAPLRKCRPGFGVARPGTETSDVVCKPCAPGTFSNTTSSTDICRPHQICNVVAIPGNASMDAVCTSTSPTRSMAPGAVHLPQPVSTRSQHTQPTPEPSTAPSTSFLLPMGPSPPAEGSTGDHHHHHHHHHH


Assays:
[1] = molecular target: T1, cynomolgus monkey TNFR2 extracellular …; assay: BLI (Octet RED96), antibody captured on AHC biosensor, His-tagged TNFR2 in solution, 1:1 model
Description: (§1) The following kinetic assay was performed using anti-human IgG Fc capture (AHC) biosensors (ForteBio) in kinetics buffer (PBS, 0.1% Tween-20 and 1% bovine serum albumin): (a) antibody (2 μg/mL) for 300 sec, (b) baseline for 120 sec, (c) association with His-tag-huTNFR2 (2.5, 0.5 and 0 μg/mL) and His-tag-cynoTNFR2 (2.5, 0.5 and 0 μg/mL) for 420 sec and (d) dissociation for 1200 sec. Data fitting and analysis was performed with Octet data analysis software 8.0 (ForteBio) using a 1:1 binding model after Savitzky-Golay filtering.

[2] = molecular target: T1, cynomolgus monkey TNFR2 extracellular …; assay: ELISA, plate coated with His-tagged TNFR2 ECD, serial dilution of chimeric IgG
Description: TNFR2 binding of purified recombinant chimeric antibodies: The huTNFR2, cynoTNFR2 antigen binding ELISA was performed on the purified recombinant chimeric antibodies. Briefly, 384-well, clear, flat bottom, high binding plates (VWR, cat #29444-096) were coated overnight at 4° C. with 1 μg/mL of huTNFR2 or cynomolgus monkey TNFR2-His in PBS. After removing the coating solution, the plates were blocked by adding blocking buffer and incubated at room temperature for 1 hour. Plates were then washed 3 times with wash buffer. Serial dilution of purified antibodies in PBS was added to individual well followed by incubation at room temperature for 1 hour. Plates were washed 3 times with wash buffer. Then 50 μL/well of goat anti hu Kappa —AP (Southern Biotech, cat #2061-04) at 1:3000 dilution or goat anti human IgG Fc-AP at 1:3000 dilution in ELISA diluent was added, incubated at room temperature for 1 hour, washed 5 times with wash buffer and developed for 30 minutes with 50 μL/well of pNPP substrate. Plates were analyzed with a Bio-TEK at 405 nm. The chimeric TNFR2 antibodies were tested positive for binding to huTNFR2 and cynoTNFR2. The TNFR2 binding EC50 values are shown in Table 6, FIG. 1A (for huTNFR2) and FIG. 1B (for cynoTNFR2).

[3] = molecular target: T2, cynomolgus monkey TNFR2 extracellular …; assay: blocking ELISA: antibody pre-mixed with cynoTNFR2, binding of cynoTNFR2 to coated cynomolgus monkey TNFα read out
Description: 96-well round bottom ELISA plates were coated overnight at 4° C. with 50 μL/well of 0.5 μg/mL human TNFα recombinant protein (R&D system, Cat #210-TA-100) in coating buffer. After removing the coating solution, blocking buffer was added into the plates followed by incubation at room temperature for 1 hour in order to block unspecific binding. During the blocking period, hybridoma antibodies samples were mixed with 0.5 μg/mL TNFR2-huFc at a 1:1 volume ratio and incubated at room temperature for another 1.5 hours. Then 50 μL/well of antigen-antibody mix solution was transferred into TNFα coated wells and incubated at room temperature for 1.5 hours. Plates were then washed 5 times with wash buffer. Then, 50 μL/well of goats anti-human IgG Fc-AP (Southern Biotech, cat #2014-04) at 1:2000 dilution in assay buffer was added, incubated at room temperature for 1 hour, washed 4 times with wash buffer and developed for 30 minutes with 50 μL/well of pNPP substrate. Plates were analyzed with a Synergy HT (Bio-TEK) at 405 nm. Parental hybridomas with the desired human and cynoTNFR2 binding as well as the ability to block human TNFR2 and human TNFα binding were prioritized for subcloning and further characterization. Subcloning was carried out with limited dilution and visual inspection was performed to ensure clonality. Hybridoma subclones were screened with the same binding and blocking assays and selected positive hits were cryopreserved.
TNFR2 blocking by purified recombinant chimeric antibodies: Human TNFR2 blocking ELISA was performed on purified recombinant chimeric antibodies following the same protocol as described above, except that 50 μL/well of serial dilution of purified antibodies (starting at 10 μg/mL, 1:3 dilution) in assay buffer was added into the reaction. The blocking IC₅₀ value represents the antibody concentration that inhibited 50% of huTNFR2 or cynoTNFR2 binding to coated human TNFα or cynomolgus monkey TNFα.

[4] = molecular target: T3, human TNFR2 expressed on cells (Expi293 …); assay: flow cytometry on Expi293 cells stably expressing huTNFR2, y axis TNFR2 binding (MFI)
Description: The coding sequence of huTNFR2 (Uniprot, P20333) was cloned into a lentiviral vector and the virus was packaged according to the instruction of the virus packaging kit (Lenti-X™ Packaging Single Shots, Cat #631275, Takada). The Expi293 cells were transduced with the recombinant virus and selected by puromycin. The cell line stably expressing huTNFR2 was incubated with anti-TNFR2 antibodies in PBS with 0.5% BSA, 1 mM EDTA, and 0.1% sodium azide (FACS buffer) for 30 minutes at 4° C. The cells were washed, and then incubated with 10 nM phycoerythrin (PE) conjugated anti-Human Fe Ab (Biolegend, cat #409304) for 20 minutes at 4° C. Cells were washed and then […] by flow cytometry with Attune (ThermoFisher Scientific). Data were analyzed with FlowJo software. Antibody binding is represented as median fluorescence intensity (MFI).
FACS based binding and blocking assays of humanized antibodies were performed as described above.

[5] = molecular target: T4, human TNFR2 extracellular domain with …; assay: BLI (Octet RED96), AHC capture, His-tag-huTNFR2 in solution; antibody sample after 4 weeks at 40 °C
Description: as §1, with “antibody sample” for “antibody”, “see,” for “sec,”, “His-tag-huTNFR2” for “His-tag-huTNFR2 (2.5, 0.5 and 0 μg/mL) and His-tag-cynoTNFR2”
(§2) The binding kinetic data were presented in Table 18, showing that the binding with human-TNFR2 was not affected under the accelerated thermal stressed condition (4 weeks at […]

[6] = molecular target: T4, human TNFR2 extracellular domain with …; assay: BLI (Octet RED96), AHC capture, His-tag-huTNFR2 in solution; antibody sample at week 0 of storage at 40 °C
Description: as §1, with “antibody sample” for “antibody”, “see,” for “sec,”, “His-tag-huTNFR2” for “His-tag-huTNFR2 (2.5, 0.5 and 0 μg/mL) and His-tag-cynoTNFR2”
as §2

[7] = molecular target: T4, human TNFR2 extracellular domain with …; assay: BLI (Octet RED96), antibody captured on AHC biosensor, His-tag-huTNFR2 in solution, 1:1 model
Description: as §1, with “μg/mL)” for “μg/mL) and His-tag-cynoTNFR2 (2.5, 0.5 and 0 μg/mL)”, “filtering. The dissociation constant (Kd) was calculated as the ratio of Koff/Kon.” for “filtering.”

[8] = molecular target: T4, human TNFR2 extracellular domain with …; assay: BLI (Octet RED96), AHC capture, His-tag-huTNFR2 in solution; antibody sample after 2 weeks at 40 °C
Description: as §1, with “antibody sample” for “antibody”, “see,” for “sec,”, “His-tag-huTNFR2” for “His-tag-huTNFR2 (2.5, 0.5 and 0 μg/mL) and His-tag-cynoTNFR2”

| Kd [1] | koff [1] | kon [1] | EC50 [2] | IC50 [3] | EC50 (read off the curve) [4] | Kd [5] | koff [5] | kon [5] | Kd [6] | koff [6] | kon [6] | Kd [7] | koff [7] | kon [7] | Kd [8] | koff [8] | kon [8] | Binder |
| --- | --- | --- | --- | --- | --- | --- | --- | --- | --- | --- | --- | --- | --- | --- | --- | --- | --- | --- |
| 0.672 nM | 0.00065 s⁻¹ | 967000 M⁻¹ s⁻¹ | 0.0494 nM | 0.968 nM |  |  |  |  |  |  |  |  |  |  |  |  |  | 51B5 chimeric anti-TNFR2 antibody (antibody, V domains shown, Chimeric: mouse variable domains with human constant regions, made as recombinant IgG1) VH: QVQLQQSGAELARPGTSVKLSCKASGYTFTDDYIDWVKQRTGQGLEWIGEIYPGSGNTYYNEKFKGKATLTADKSSSTAYMQLSSLTSEDSAVYFCARSQVYGKIAMDHWGQGTSVTVSS VL: DIVLTQSPASLAVSLGQRATISCRASESVDNSGNSFMHWYQQIPGQPPKLLIYRASNLESGIPARFSGSGARTDFTLTIDPVGAVDVATYYCQQSKEDPYTFGGGTKLEIE |
|  |  |  |  |  | ~0.6 nM | 1.06 nM | 0.000527 s⁻¹ | 497000 M⁻¹ s⁻¹ | 1.68 nM | 0.000495 s⁻¹ | 295000 M⁻¹ s⁻¹ | 1.11 nM | 0.000456 s⁻¹ | 412000 M⁻¹ s⁻¹ | 1.35 nM | 0.000471 s⁻¹ | 348000 M⁻¹ s⁻¹ | SB1901-72 humanized anti-TNFR2 antibody (antibody, V domains shown) VH: QVQLVQSGAEVKKPGASVKVSCKASGYTFTDDYIDWVRQATGQGLEWIGEIYPGSGNTYYNEKFKGRVTMTRDKSISTAYMELSSLRSEDTAVYYCARSQVYGKIAMDHWGQGTLVTVSS VL: DIVMTQSPDSLAVSLGERATINCRASESVDNSGNSFMHWYQQKPGQPPKLLIYRASNLESGVPDRFSGSGSRTDFTLTISSLQAEDVAVYYCQQSKEDPYTFGQGTKVEIK |
